Results reported in article PMC6771230.

Tested on: YB-1
Assay: EMSA
Settings: serial-diluted protein; RNA-EMSA in Thermo Scientific kit binding buffer, 6% polyacrylamide gel; salt, pH and temperature not stated

H19 RNA fragment 661-745 (85 nt)
Kd: 7.4 µM
